In US20250340631A1 (HARBOUR BIOMED SHANGHAI, published 2025):
One block for each binder: values may come before it.

Experiments:
[1] = target: T1, Human CD3E (Acro, CDE-H5223) (human, UniProt P07766 23-126, biotinylated (mixed with biotin 1:3)); assay: BLI (Octet), biotinylated CD3 on SA sensor, 1:1 global fit;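 note: antibodies applied as analyte in 2-fold serial dilutions, with a 180 s association phase followed by a 300 s dissociation phase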
T1 construct: also called Human CD3Ec
Method: (§1) The binding kinetics between proteins and antibodies was analyzed by the Biolayer Interferometry (BLI) technique using an Octet Red 96e (Fortebio) system. Human CD3E (Acro, CDE-H5223), cynomolgus CD3E (Acro, CDE-C5226) and murine CD3E (Acro, CDE-M5256) were mixed with biotin (Thermo Scientific, A39257) in a molar ratio of 1:3. The mixture was incubated at 4° C. overnight, and then excess biotin was removed to obtain biotinylated CD3E. The rotation speed was set at 1000 rpm for the system. […] After being equilibrated in the buffer for 120 s, the SA sensor with captured CD3 was allowed to bind to 2-fold serially diluted antibodies. […] Finally, the SA sensor was immersed in a 10 mM glycine-hydrochloric acid solution at pH 1.5 for regeneration to elute the antibodies bound to the sensor. […] For the interactions of fast binding and fast dissociation, the “steady state” method was selected to fit the data to obtain KD(M) values.

[2] = target: T2, Biotinylated human CD3E&D (human, UniProt P07766 23-126; P04234 22-105, biotin label); assay: as above
T2 construct: also called CDD-H82W6
Method: as §1

[3] = target: T3, Biotinylated murine CD3E&D (murine, UniProt P22646 22-108; P04235 22-105, biotin label); assay: BLI (Octet), biotinylated CD3 on SA sensor
T3 construct: also called CDD-M82W5
Method: as §1

[4] = target: T4, human CLDN18.2 (human); assay: FACS on NUGC4_D8 cells
T4 construct: the HEK293 line was made with a GenScript plasmid; also called hCLDN18.2

[5] = target: CLDN18.2 of SNU620 cells (methionine to leucine at amino acid 149) (human, UniProt P56856-2 1-261); assay: cell-based or functional assay
[6] = target: T4, human CLDN18.2; assay: cell-based or functional assay
[7] = target: T5, human CD3 on Jurkat cells (human, UniProt P07766 23-207); assay: FACS on Jurkat cells
T5 construct: whole, on cells; on cells it stands in the whole CD3/TCR complex; also called CD3-expressing cells
Method: (§2) Antibodies were assayed for binding affinity by FACS. Test cells include HEK293/hCLDN18.2, HEK293/hCLDN18.1, NUGC4_D8 and Jurkat cells. […] The cell density was adjusted to 10⁶ cells/mL, and 50 μL of the cell suspension was added to each well of a 96-well plate. Antibodies were diluted to different concentrations with FACS buffer, and 50 μL of the antibody dilution was added to each well of the 96-well plate. After 2 h of incubation at 4° C., the plate was washed twice with FACS buffer. […] After 1 h of incubation at 4° C., the plate was washed twice with FACS buffer. The cells were resuspended in fixative solution, and then the fluorescence of the cells was monitored using an FACS instrument (ACEA NovoCyte).

[8] = target: T4, human CLDN18.2; assay: FACS on HEK293/hCLDN18.2 cells
[9] = target: T6, Human CD32b (human, UniProt P31994 46-217, limits assumed); assay: BLI (Octet), antibody on FAB2G sensor
T6 sequence (looked up): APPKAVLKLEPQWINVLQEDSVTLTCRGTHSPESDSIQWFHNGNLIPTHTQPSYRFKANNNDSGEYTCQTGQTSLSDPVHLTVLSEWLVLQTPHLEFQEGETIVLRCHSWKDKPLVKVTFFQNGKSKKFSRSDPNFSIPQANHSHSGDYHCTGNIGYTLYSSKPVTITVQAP
Method: (§3) The binding kinetics between proteins and antibodies was analyzed by the Biolayer Interferometry (BLI) technique using an Octet Red 96e (Fortebio) system. The rotation speed was set at 1000 rpm for the system. […] After equilibrated in the buffer for 120 s, the FAB2G sensor was allowed to bind to 2-fold serially diluted human Fc receptor protein. Finally, the FAB2G sensor was immersed in a 10 mM glycine-hydrochloric acid solution at pH 1.5 for regeneration to elute the proteins bound to the sensor. The affinity assays of antibodies for FcRn were performed under the conditions of both pH 6.0 buffer and pH 7.4 buffer. […] For the interactions of fast binding and fast dissociation, the “steady state” method was selected to fit the data to obtain KD(M) values.

[10] = target: Human CD16a(V) (human, UniProt P08637 17-208); assay: BLI (Octet), antibody on FAB2G sensor
Method: as §3

[11] = target: T7, Human CD64 (human, UniProt P12314 16-288, limits assumed); assay: BLI (Octet), antibody on FAB2G sensor
T7 construct: bought recombinant protein
Method: as §3

[12] = target: T8, Human CD32a(H) (human, UniProt P12318 36-218, limits assumed); assay: BLI (Octet), antibody on FAB2G sensor
T8 sequence (looked up): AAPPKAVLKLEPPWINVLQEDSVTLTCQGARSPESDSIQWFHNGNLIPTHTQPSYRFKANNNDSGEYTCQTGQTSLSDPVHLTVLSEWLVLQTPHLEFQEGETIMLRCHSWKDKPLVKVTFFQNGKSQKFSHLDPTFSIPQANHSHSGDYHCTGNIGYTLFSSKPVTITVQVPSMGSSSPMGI
Method: as §3

[13] = target: Human CD16a(F) (human, UniProt P08637 17-208); assay: BLI (Octet), antibody on FAB2G sensor
Method: as §3

[14] = target: T4, human CLDN18.2; assay: competition FACS on HEK293/hCLDN18.2 cells; competitor 200 nM biotinylated PR004549
Method: This example is to study the binding of anti-human CLDN18.2 bispecific antibodies to the epitope region of a human CLDN18.2 antigen. Competitive binding experiments were performed at the cellular level using human CLDN18.2-overexpressing HEK293/hCLDN18.2 cells. […] The mixture was well mixed and incubated at 4° C. for 30 min. 25 μL of the corresponding serially diluted non-biotinylated anti-human CLDN18.2 antibody was added. The mixture was well mixed and incubated at 4° C. for 1 h. The cells in each well were washed twice with 200 μL of pre-cooled FACS buffer (2% BSA in DPBS) and centrifuged at 500 g at 4° C. for 5 min, and then the supernatant was discarded. A fluorescent secondary antibody (Jackson ImmunoResearch, 016-540-084, 1:500) was added. The mixture was incubated at 4° C. in the absence of light for 1 h. The cells in each well were washed twice with 200 μL of pre-cooled FACS buffer (2% BSA in DPBS) and centrifuged at 500 g at 4° C. for 5 min, and then the supernatant was discarded. Finally, the cells in each well were resuspended in 200 μL of pre-cooled FACS buffer, and the fluorescence signal values were read using a ACEA_NovoCyte.

[15] = target: T9, Cynomolgus CD3E (Acro, CDE-C5226) (cynomolgus, UniProt Q95LI5 22-117, biotinylated (mixed with biotin 1:3)); assay: BLI (Octet), biotinylated CD3 on SA sensor, 1:1 global fit;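 note: antibodies applied as analyte in 2-fold serial dilutions, with a 180 s association phase followed by a 300 s dissociation phase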
T9 sequence (looked up): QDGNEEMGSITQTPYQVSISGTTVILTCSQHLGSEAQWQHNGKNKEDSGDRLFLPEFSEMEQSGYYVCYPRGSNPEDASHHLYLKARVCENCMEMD
Method: as §1

[16] = target: Human FcRn (human, UniProt P55899 24-297; P61769 21-119); assay: BLI (Octet), antibody on FAB2G sensor, pH 6.0, 1:1 global fit; pH 6.0; 400-25 nM
Method: as §3

[17] = target: T4, human CLDN18.2; assay: competition FACS on HEK293/hCLDN18.2 cells; competitor 10 nM biotinylated PR000400
[18] = target: T5, human CD3 on Jurkat cells; assay: FACS on Jurkat cells; remark: listed apart in the source
Method: as §2

T1 sequence (P07766 23-126 limits assumed): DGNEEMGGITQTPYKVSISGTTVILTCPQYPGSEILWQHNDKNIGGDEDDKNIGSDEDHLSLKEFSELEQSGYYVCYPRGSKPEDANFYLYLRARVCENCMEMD
T2 sequence (P07766 23-126, chain 1 of 2): as the sequence (P07766 23-126 limits assumed) above
T2 sequence (P04234 22-105, chain 2 of 2): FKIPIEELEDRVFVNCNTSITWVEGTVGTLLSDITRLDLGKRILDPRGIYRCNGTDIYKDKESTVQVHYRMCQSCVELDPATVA
T5 sequence (P07766 23-207): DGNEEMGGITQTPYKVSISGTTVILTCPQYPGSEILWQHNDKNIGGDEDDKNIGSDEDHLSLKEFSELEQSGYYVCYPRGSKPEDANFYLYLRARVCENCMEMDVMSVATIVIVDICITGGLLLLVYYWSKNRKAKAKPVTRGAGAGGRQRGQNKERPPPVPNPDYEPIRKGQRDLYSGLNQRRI
Chain of CLDN18.2 of SNU620 cells (methionine to leucine at amino acid 149) (P56856 other isoform, or with tags, fused parts or gaps limits assumed): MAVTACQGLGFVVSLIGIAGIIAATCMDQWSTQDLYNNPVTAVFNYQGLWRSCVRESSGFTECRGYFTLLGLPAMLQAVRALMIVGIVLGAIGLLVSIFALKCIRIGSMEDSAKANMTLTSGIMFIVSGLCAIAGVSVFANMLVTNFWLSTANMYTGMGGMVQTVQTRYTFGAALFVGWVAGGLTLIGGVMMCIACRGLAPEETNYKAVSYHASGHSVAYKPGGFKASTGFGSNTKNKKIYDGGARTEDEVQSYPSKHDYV
T7 sequence (P12314 16-288 limits assumed): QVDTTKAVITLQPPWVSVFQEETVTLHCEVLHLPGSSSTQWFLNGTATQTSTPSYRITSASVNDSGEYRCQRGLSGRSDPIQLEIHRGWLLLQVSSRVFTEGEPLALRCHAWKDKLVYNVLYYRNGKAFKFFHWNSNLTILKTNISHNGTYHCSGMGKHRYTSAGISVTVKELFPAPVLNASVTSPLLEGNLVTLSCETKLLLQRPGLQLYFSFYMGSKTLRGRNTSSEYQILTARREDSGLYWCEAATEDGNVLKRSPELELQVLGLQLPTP
Chain of Human CD16a(V) (P08637 17-208 F176V limits assumed): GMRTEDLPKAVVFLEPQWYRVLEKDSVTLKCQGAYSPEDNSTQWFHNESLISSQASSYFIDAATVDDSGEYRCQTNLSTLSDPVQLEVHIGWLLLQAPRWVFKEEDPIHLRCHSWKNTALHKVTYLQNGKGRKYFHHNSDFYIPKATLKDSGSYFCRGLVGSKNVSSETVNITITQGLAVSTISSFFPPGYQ
T3 sequence (P22646 22-108, chain 1 of 2): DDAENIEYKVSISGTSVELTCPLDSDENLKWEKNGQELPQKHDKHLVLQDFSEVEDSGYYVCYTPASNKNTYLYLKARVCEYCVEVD
T3 sequence (P04235 22-105, chain 2 of 2): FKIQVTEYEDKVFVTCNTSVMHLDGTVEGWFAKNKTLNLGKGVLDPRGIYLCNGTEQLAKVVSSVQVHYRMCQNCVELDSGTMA
Chain of Human CD16a(F) (P08637 17-208 limits assumed): as the sequence (P08637 17-208 F176V limits assumed) above, with V160F counted along it

Kd [1]: 30.8 nM
koff [1]: 0.00225 s⁻¹
kon [1]: 73100 M⁻¹ s⁻¹
Kd [2]: 33.7 nM
koff [2]: 0.00137 s⁻¹
kon [2]: 40700 M⁻¹ s⁻¹
binding result [3]: no binding (tested: 120-7.5 nM)
B1: PR004931 (bispecific antibody)
chain 1: QVQLVQSGAEVKKPGASVKVSCKASGYTFTEFGMNWVRQAPGQGLEWMGWINTKTGEATYVEEFKGRVTFTTDTSTSTAYMELRSLRSDDTAVYYCARWDFAYYVEAMDYWGQGTTVTVSSASTKGPSVFPLAPSSKSTSGGTAALGCLVKDYFPEPVTVSWNSGALTSGVHTFPAVLQSSGLYSLSSVVTVPSSSLGTQTYICNVNHKPSNTKVDKKVEPKSCDGGGGSGGGGSEVQLLESGGGLVQPGGSLRLSCAASGFTFSTYAMNWVRQAPGKGLEWVSRIRSKYNNYATYYADSVKGRFTISRDDSKNTLYLQMNSLRAEDTAVYYCVRHGNFGNSYVSWFAYWGQGTLVTVSSASVAAPSVFIFPPSDEQLKSGTASVVCLLNNFYPREAKVQWKVDNALQSGNSQESVTEQDSKDSTYSLSSTLTLSKADYEKHKVYACEVTHQGLSSPVTKSFNRGECDKTHTCPPCPAPEAAGGPSVFLFPPKPKDTLMISRTPEVTCVVVDVSHEDPEVKFNWYVDGVEVHNAKTKPREEQYNSTYRVVSVLTVLHQDWLNGKEYKCKVSNKALGAPIEKTISKAKGQPREPQVYTLPPCREEMTKNQVSLWCLVKGFYPSDIAVEWESNGQPENNYKTTPPVLDSDGSFFLYSKLTVDKSRWQQGNVFSCSVMHEALHNHYTQKSLSLSPGK
chain 2: QAVVTQEPSLTVSPGGTVTLTCGSSTGAVTTSNYANWVQEKPGQAFRGLIGGTNKRAPGTPARFSGSLLGGKAALTLSGAQPEDEAEYYCALWYSNLWVFGGGTKLTVLSSASTKGPSVFPLAPSSKSTSGGTAALGCLVKDYFPEPVTVSWNSGALTSGVHTFPAVLQSSGLYSLSSVVTVPSSSLGTQTYICNVNHKESNTKVDKKVEPKSC
chain 3: QVQLVQSGAEVKKPGASVKVSCKASGYTFTEFGMNWVRQAPGQGLEWMGWINTKTGEATYVEEFKGRVTFTTDTSTSTAYMELRSLRSDDTAVYYCARWDFAYYVEAMDYWGQGTTVTVSSASTKGPSVFPLAPSSKSTSGGTAALGCLVKDYFPEPVTVSWNSGALTSGVHTFPAVLQSSGLYSLSSVVTVPSSSLGTQTYICNVNHKPSNTKVDKKVEPKSCDKTHTCPPCPAPEAAGGPSVFLFPPKPKDTLMISRTPEVTCVVVDVSHEDPEVKFNWYVDGVEVHNAKTKPREEQYNSTYRVVSVLTVLHQDWLNGKEYKCKVSNKALGAPIEKTISKAKGQPREPQVCTLPPSREEMTKNQVSLSCAVKGFYPSDIAVEWESNGQPENNYKTTPPVLDSDGSFFLVSKLTVDKSRWQQGNVFSCSVMHEALHNHYTQKSLSLSPGK
chain 4: DIQMTQSPSSLSASVGDRVTITCKASAAVGTYVAWYQQKPGKAPKLLIYSASYRKRGVPSRFSGSGSGTDFTLTISSLQPEDFATYYCHQYYTYPLFTFGQGTKLEIKRTVAAPSVFIFPPSDEQLKSGTASVVCLLNNEYPREAKVQWKVDNALQSGNSQESVTEQDSKDSTYSLSSTLTLSKADYEKHKVYACEVTHQGLSSPVTKSFNRGEC
notes: also called anti-CEA×CD3 bispecific antibody (WO2017055389A1, Roche)

EC50 [4]: 13.1 nM
TDCC, Titer EC50 (pM), SNU620 [5]: 25.8 pM
TDCC, Titer EC50 (pM), NUGC4_D8 [6]: 6.4 pM
binding result [7]: binds
EC50 [8]: 17.5 nM
B2: PR005401 (bispecific antibody, human IgG1, lambda, L234A L235A)
chain: EVQLVESGGGLVQPGGSLRLSCAASGFTFSSYWMHWVRQVPGKGLVWVSRIDSRGSRTIYADSVKGRFTISRDNAKNTLYLQMNSLRAEDTAVYYCARGEDHDILTGYPIRGQGTTVTVSSGGGGSGGGGSGGGGSEVQLVESGGGLVQPGGSLRLSCAASGFTFSSYWMHWVRQVPGKGLVWVSRIDSRGSRTIYADSVKGRFTISRDNAKNTLYLQMNSLRAEDTAVYYCARGEDHDILTGYPIRGQGTTVTVSSASEPKSSDKTHTCPPCPAPEAAGGPSVFLFPPKPKDTLMISRTPEVTCVVVDVSHEDPEVKFNWYVDGVEVHNAKTKPREEQYNSTYRVVSVLTVLHQDWLNGKEYKCKVSNKALPAPIEKTISKAKGQPREPQVCTLPPSREEMTKNQVSLSCAVKGFYPSDIAVEWESNGQPENNYKTTPPVLDSDGSFFLVSKLTVDKSRWQQGNVFSCSVMHEALHNHYTQKSLSLSPGK
heavy: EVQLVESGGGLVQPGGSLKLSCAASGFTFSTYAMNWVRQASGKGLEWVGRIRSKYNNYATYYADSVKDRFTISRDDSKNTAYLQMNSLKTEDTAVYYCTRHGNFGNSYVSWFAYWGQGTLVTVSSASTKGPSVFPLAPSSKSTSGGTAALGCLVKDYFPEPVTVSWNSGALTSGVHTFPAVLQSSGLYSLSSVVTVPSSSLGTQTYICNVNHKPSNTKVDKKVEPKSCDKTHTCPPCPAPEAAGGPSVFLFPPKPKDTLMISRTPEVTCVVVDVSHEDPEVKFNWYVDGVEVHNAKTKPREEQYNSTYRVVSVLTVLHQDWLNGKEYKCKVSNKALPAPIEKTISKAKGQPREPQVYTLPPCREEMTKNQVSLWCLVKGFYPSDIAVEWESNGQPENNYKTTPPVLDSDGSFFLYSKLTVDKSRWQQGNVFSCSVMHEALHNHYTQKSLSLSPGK
light: QAVVTQEPSLTVSPGGTVTLTCRSSTGAVTTSNYANWVQQKPGQAPRGLIGGTNKRAPWTPARFSGSLLGDKAALTLLGAQPEDEAEYFCALWYSNLWVFGGGTKLTVLGQPKAAPSVTLFPPSSEELQANKATLVCLISDFYPGAVTVAWKADSSPVKAGVETTTPSKQSNNKYAASSYLSLTPEQWKSHRSYSCQVTHEGSTVEKTVAPTECS
notes: structure 1; CD3 Fab from PR003886, CLDN18.2 VH from PR007244; LALA

EC50 [4]: 78 nM
binding result [9]: no binding (tested: 10000-625 nM)
binding result [10]: no binding (tested: 6000-375 nM)
binding result [11]: no binding (tested: 800-50 nM)
binding result [12]: no binding (tested: 10000-625 nM)
binding result [13]: no binding (tested: 10000-625 nM)
IC50 [14]: 100 nM
Maximum inhibition rate (%) [14]: 48%
TDCC, Titer EC50 (pM), SNU620 [5]: 18.5 pM
TDCC, Titer EC50 (pM), IM95 [6]: 460 pM
TDCC, Titer EC50 (pM), NUGC4_D8 [6]: 87 pM
Kd [1]: 31.7 nM
koff [1]: 0.00216 s⁻¹
kon [1]: 68100 M⁻¹ s⁻¹
Kd [15]: 32.4 nM
koff [15]: 0.00197 s⁻¹
kon [15]: 60700 M⁻¹ s⁻¹
Kd [16]: 217 nM
koff [16]: 0.0632 s⁻¹
kon [16]: 291000 M⁻¹ s⁻¹
IC50 [17]: 132 nM
Maximum inhibition rate (%) [17]: 97.8%
EC50 [18]: 65 nM
B3: PR006293 (bispecific antibody, human IgG1, lambda)
chain: EVQLVESGGGLVQPGGSLRLSCAASGFTFSSYWMHWVRQVPGKGLVWVSRISSDASRTIYADSVKGRFTISRDNAKNTLYLQMNSLRAEDTAVYYCARGEDHDILTGYPIRGQGTTVTVSSGGGGSGGGGSGGGGSEVQLVESGGGLVQPGGSLRLSCAASGFTFSSYWMHWVRQVPGKGLVWVSRISSDASRTIYADSVKGRFTISRDNAKNTLYLQMNSLRAEDTAVYYCARGEDHDILTGYPIRGQGTTVTVSSASEPKSSDKTHTCPPCPAPEAAGAPSVFLFPPKPKDTLMISRTPEVTCVVVDVSHEDPEVKFNWYVDGVEVHNAKTKPREEQYNSTYRVVSVLTVLHQDWLNGKEYKCKVSNKALPAPIEKTISKAKGQPREPQVCTLPPSREEMTKNQVSLSCAVKGFYPSDIAVEWESNGQPENNYKTTPPVLDSDGSFFLVSKLTVDKSRWQQGNVFSCSVMHEALHNHYTQKSLSLSPGK
heavy: EVQLLESGGGLVQPGGSLRLSCAASGFTFSTYAMNWVRQAPGKGLEWVSRIRSKYNNYATYYADSVKDRFTISRDDSKSTLYLQMNSLRAEDTAVYYCVRHGNFGNSYVSWFAYWGQGTLVTVSSASTKGPSVFPLAPSSKSTSGGTAALGCLVKDYFPEPVTVSWNSGALTSGVHTFPAVLQSSGLYSLSSVVTVPSSSLGTQTYICNVNHKPSNTKVDKKVEPKSCDKTHTCPPCPAPEAAGAPSVFLFPPKPKDTLMISRTPEVTCVVVDVSHEDPEVKFNWYVDGVEVHNAKTKPREEQYNSTYRVVSVLTVLHQDWLNGKEYKCKVSNKALPAPIEKTISKAKGQPREPQVYTLPPCREEMTKNQVSLWCLVKGFYPSDIAVEWESNGQPENNYKTTPPVLDSDGSFFLYSKLTVDKSRWQQGNVFSCSVMHEALHNHYTQKSLSLSPGK
light: QAVVTQEPSLTVSPGGTVTLTCRSSTGAVTTSNYANWVQQKPGQAPRGLIGGTNKRAPWTPARFSGSLLGDKAALTLLGAQPEDEAEYFCALWYSNLWVFGGGTKLTVLGQPKAAPSVTLFPPSSEELQANKATLVCLISDFYPGAVTVAWKADSSPVKAGVETTTPSKQSNNKYAASSYLSLTPEQWKSHRSYSCQVTHEGSTVEKTVAPTECS
notes: structure 1; CD3 Fab from PR001848, CLDN18.2 VH from PR007245; AAA
